Patent EP4353742A1 (Todd Pharm Co., Ltd., dated 2024)
Changes are numbered by the printed parent chain.

B1: FGF21 variant ① (Gln184Glu & Gln201His & Ala208Thr) (ligand)
chain: DSSPLLQFGGQVRQRYLYTDDAQQTEAHLEIREDGTVGGAADQSPESLLQLKALKPGVIQILGVKTSRFLCQRPDGALYGSLHFDPEACSFRELLLEDGYNVYQSEAHGLPLHLPGNKSPHRDPAPRGPARFLPLPGLPPALPEPPGILAPEPPDVGSSDPLSMVGPSHGRSPSYTS
B2: FGF21 variant ② (Ser195Gly & Pro199Gly & Ser200Gly) (ligand)
chain: B1 chain with E152Q, S163G, P167G, S168G, H169Q, T176A
B3: FGF21 variant ③ (combination of variants ① and ②) (ligand)
chain: B1 chain with S163G, P167G, S168G

Target: FGFR1c
Test: cell-based or functional assay

Row | EC50 of FGFR1c activation (luciferase reporter, HEK293 cells expressing FGFR1c and β-Klotho), fold increase compared to the wild type [fold] | Binder
1 | 1.73 | B1
2 | 4.38 | B2
3 | 6.03 | B3
